Data on 1 substance can be found in US20030121063.

Data set [1] deals with L1 ENp (L1 ORF2 endonuclease domain) (Homo sapiens) (UniProt O00370). The experiment in a line: cleavage_in_vitro. To be noted: turnover number; Mg greatly preferred over Mn.
Data set [2] deals with L1 ENp E43A E43A (Homo sapiens). Briefly: cleavage_in_vitro. The following applies: slightly leaky; 5 mM MgCl2.

UniProt O00370, sequence (O00370 1-239): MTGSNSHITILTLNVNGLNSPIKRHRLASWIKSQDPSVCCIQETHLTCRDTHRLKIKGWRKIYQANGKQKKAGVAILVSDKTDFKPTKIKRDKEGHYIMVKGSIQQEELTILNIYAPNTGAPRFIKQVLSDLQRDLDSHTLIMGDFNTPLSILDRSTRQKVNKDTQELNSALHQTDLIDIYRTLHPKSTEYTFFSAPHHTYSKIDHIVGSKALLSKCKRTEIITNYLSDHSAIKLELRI

As for pBS plasmid, native, the activity (phosphodiester bond cleavages per hour) in data set [1] was 2. The cleavage activity (fold less than wild type) in data set [2] was 20.
